According to article PMC12242769:

How the values were obtained:
Test in all cases: EMSA
[1] = tested on: TbLa (wild type) (Trypanosoma brucei); details: 1 mM Mg2+; apparent Kd from Hill fit; native tRNA modifications except queuosine (from TbTGT2Δ cells); 50 mM HEPES pH 7.5, 1 mM MgCl2, 5 mM KCl; on ice 30 min; ~0.6 nM tRNA, 10 µl; 6% native PAGE
[2] = tested on: TbLa LaMΔ (Trypanosoma brucei); details: native tRNA modifications except queuosine (from TbTGT2Δ cells); 50 mM HEPES pH 7.5, 1 mM MgCl2, 5 mM KCl; on ice 30 min; ~0.6 nM tRNA, 10 µl; 6% native PAGE
[3] = tested on: TbLa RRM1Δ (Trypanosoma brucei); details: native tRNA modifications except queuosine (from TbTGT2Δ cells); 50 mM HEPES pH 7.5, 1 mM MgCl2, 5 mM KCl; on ice 30 min; ~0.6 nM tRNA, 10 µl; 6% native PAGE

native mature tRNATyr lacking Q34
Kd [1]: 216 nM | Kd [2]: 855 nM | Kd [3]: 446 nM
